Source: publication PMC2288612, “The Mre11 protein interacts with both Rad50 and the HerA bipolar helicase and is recruited to DNA following gamma irradiation in the archaeon Sulfolobus acidocaldarius” (BMC Molecular Biology, 2008)
Blank lines part the entries; values can stand above or below the binder they belong to.

Biological target: T1, Rad50 recombinant protein (Sulfolobus acidocaldarius) (S. acidocaldarius, UniProt O33600 1-886)
T1 construct: Rad50, Sulfolobus acidocaldarius, purified recombinant protein; source: recombinant, purified (Ni-NTA, gel filtration through Sephadex 200)
T1 sequence (looked up): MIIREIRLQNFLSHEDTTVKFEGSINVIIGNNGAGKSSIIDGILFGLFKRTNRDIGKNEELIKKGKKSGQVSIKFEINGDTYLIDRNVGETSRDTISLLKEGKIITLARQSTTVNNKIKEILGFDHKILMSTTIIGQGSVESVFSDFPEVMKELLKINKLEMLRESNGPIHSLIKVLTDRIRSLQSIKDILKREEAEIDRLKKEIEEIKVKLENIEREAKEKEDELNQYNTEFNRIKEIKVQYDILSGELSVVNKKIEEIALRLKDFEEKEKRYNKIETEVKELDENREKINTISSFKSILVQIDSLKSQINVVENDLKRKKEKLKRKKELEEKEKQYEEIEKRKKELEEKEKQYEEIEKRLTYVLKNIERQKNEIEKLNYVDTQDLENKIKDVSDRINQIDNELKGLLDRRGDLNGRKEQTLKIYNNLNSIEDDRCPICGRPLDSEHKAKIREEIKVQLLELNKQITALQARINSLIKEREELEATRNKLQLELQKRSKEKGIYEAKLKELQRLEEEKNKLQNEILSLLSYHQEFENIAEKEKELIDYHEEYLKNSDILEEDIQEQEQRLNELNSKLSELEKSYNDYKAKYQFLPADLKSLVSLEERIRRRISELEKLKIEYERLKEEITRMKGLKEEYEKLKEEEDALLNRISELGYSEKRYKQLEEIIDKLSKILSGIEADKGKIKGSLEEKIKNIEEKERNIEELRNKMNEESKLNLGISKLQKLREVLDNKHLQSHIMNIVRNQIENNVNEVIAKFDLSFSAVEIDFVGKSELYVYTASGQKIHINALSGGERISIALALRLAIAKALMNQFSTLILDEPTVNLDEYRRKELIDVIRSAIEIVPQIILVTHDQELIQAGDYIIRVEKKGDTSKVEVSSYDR
Experiment: co-IP; anti-Rad50 purified IgGs and protein A-sepharose on a mixture of purified recombinant proteins (60 nM Rad50, Mre11 and NurA, 300 nM HerA) in IP buffer (20 mM Hepes pH 7.5, 100 mM NaCl, 15 mM MgCl2, 5 mM beta-mercaptoethanol); 4°C; immunoblot
Settings: both partners purified

binding result: binds
B1: HerA recombinant protein (Sulfolobus acidocaldarius) (natural protein, S. acidocaldarius, UniProt F2Z5Z6 1-495, looked up)
chain: MTIGYIIGSATINEATAILEQKIRAGYYVILEYDGDKILGLITNVYTGSPLLDDNLNDVKFVQRIKQLEANKIPFFIKARIKLLCKLDGKFTQPDLPPVAGTPVRLASDEELSTVFSAGDVRIGKLIGSNVEVKIRLNPLSRHLAILAATGSGKSNTVAILSQRLVEIGGSILIFDYHGEYYDSTLPNLNIIEPKLNPLYLSVNEFATLLEIRENANIQYRIIRRTFNQLKEEINNEIKEGKTSLAELNSNFFERLKVKIEEEGRNEKRKESKDEVLNKVEDFAERYSDIIDITFGDVINKIKLGKINVVNLSSLDEDAIDAIVAHYLRRILTSRKENKIKKDSGLKFPILTVVEEAHVLLSKDTNTLTKKWAGRIAREGRKFGVGLIIVSQRPKGLDENILSQMTNKIILKIVEPSDKKYVLETSDNLSEDLADGLSSLDTGEAIIIGNVVKLPTIIKIDKFEGKLSGSDPNLTEEWKRAKEEEIVHSDVSDWG
notes: HerA bipolar DNA helicase, Sulfolobus acidocaldarius, purified recombinant protein; also called HerA bipolar helicase

binding result: binds
B2: Mre11 recombinant protein (Sulfolobus acidocaldarius) (natural protein, S. acidocaldarius, UniProt Q8NKQ0 1-382, looked up)
chain: MQLLHISDTHLGKRQYNLESREKDVYDTFTQLIDIAINEHVKAVIHTGDLFDVNNPPNRAKLHAIKELKRLKDHNIPFICIAGDHDSPKRKEEIYPQRILEEFNLIKILQKIDNRVKLENVEVYGISHISNVSVNDLKEQLSKVKPETRKSILMLHQGIRTYLPYQGAWQIELSDLPKGFSLYAVGHLHSRRKDYLDGGALIEIAGSPDIMREEEIEDYQKSKKGATLIDMSGDLPSINYINVNIRDQLVLDINVDKIEQSIESVIQKLKENVKNDKKPILHIELEGTVPIRKDVLMTKLQALRDYVEHYRIYKNNIVSIKEENLKTKLKTTYSSLNDIIADYLKGIGYTDEETKIIIDIINEEDEKKVEELLKKFAGVEDK
notes: Mre11, Sulfolobus acidocaldarius, purified recombinant protein; source: recombinant, purified (Ni-NTA, gel filtration through Sephadex 200)
